Measurements: patent CN114044821A (INST MILITARY MEDICINE ACADEMY MILITARY SCIENCES PLA, dated 2022)

Target: 新冠病毒野生型刺突蛋白(S蛋白)，在假病毒/真病毒表面 (SARS-CoV-2, UniProt P0DTC2 14-1273)
Experiment: cell-based or functional assay

B1: 抗SARS-CoV-2全人源单克隆抗体ZWC12 (antibody, V domains shown)
VH: EVQLVESGGALVQPGGSLRLSCAASGFTFANYAMSWVRQAPGKGLEWVSSMTGSSIDSYYADSVKGRFTISRDNSRNTLYLQMNSLRAEDTAVYYCAKGELLWFGDLLHNWFDPWGRGTLVTVSS
VL: DIVMTQSPATLSVSPGERATLSCRASQSVSTNLAWYQQKPGQAPRLLIHGASTRATGLPARFSGSGSGTEFTLTISSLQSEDFAVYFCQQYDSWPGTFGPGTKVDIKR
- 假病毒中和 EC50 (luciferase, HEK293T): 1.04 µg/mL
- 真病毒中和 EC50 (Vero E6, crystal violet): 25 µg/mL
